Some targets named below: PTGIR (UniProt P43119 1-386, limits assumed); OPRL1 (UniProt P41146 1-370); HRH2 (UniProt P25021 1-359); NMBR (UniProt P28336 1-390); P2RY6 (UniProt Q15077 1-328).
What all share (assay): cell-based or functional assay
The target in the next experiment is T1, GLP2R (UniProt O95838 1-553, limits assumed).
T1 sequence (looked up): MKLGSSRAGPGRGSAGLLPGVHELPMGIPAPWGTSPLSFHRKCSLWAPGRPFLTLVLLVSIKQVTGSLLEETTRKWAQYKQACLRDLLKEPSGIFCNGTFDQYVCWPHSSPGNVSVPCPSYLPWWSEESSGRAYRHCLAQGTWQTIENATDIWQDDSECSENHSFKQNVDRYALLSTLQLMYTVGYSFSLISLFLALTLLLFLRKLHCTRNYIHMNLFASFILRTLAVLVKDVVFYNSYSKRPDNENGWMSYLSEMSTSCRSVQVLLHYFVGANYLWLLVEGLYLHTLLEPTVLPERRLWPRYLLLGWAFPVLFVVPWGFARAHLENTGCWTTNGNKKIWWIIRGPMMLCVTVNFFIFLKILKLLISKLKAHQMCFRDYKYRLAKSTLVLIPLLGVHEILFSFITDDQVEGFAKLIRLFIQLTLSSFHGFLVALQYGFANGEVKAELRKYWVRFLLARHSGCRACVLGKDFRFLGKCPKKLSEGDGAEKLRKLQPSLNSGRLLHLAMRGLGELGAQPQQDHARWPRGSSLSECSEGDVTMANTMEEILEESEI

Another experiment deals with T2, AGTRL1 (UniProt P35414 1-380).
T2 sequence (looked up): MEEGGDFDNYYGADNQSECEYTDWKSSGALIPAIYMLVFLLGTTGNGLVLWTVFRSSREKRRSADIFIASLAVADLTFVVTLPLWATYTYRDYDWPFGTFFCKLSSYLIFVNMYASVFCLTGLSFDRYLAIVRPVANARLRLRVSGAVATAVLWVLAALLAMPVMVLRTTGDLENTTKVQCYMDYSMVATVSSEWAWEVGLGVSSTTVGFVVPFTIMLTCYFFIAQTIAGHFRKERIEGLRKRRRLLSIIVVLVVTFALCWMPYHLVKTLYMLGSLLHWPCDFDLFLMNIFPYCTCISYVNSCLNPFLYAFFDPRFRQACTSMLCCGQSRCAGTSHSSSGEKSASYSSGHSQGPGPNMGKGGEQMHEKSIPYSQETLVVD

In a further experiment the target is T3, VIPR1 (UniProt P32241 31-457).
T3 sequence (looked up): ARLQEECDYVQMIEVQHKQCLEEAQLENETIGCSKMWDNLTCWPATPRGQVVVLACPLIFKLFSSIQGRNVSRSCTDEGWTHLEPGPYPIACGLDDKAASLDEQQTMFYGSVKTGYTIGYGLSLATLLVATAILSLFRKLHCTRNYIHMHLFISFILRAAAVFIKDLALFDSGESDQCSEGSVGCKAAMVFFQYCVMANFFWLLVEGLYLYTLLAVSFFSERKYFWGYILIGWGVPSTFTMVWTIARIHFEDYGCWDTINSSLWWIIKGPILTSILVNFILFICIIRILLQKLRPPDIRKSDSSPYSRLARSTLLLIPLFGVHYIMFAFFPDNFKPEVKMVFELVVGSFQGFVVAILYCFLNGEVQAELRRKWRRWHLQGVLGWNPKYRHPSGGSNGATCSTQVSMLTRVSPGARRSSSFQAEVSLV

In the next experiment the target is T4, AVPR1B (UniProt P47901 1-424).
T4 sequence (looked up): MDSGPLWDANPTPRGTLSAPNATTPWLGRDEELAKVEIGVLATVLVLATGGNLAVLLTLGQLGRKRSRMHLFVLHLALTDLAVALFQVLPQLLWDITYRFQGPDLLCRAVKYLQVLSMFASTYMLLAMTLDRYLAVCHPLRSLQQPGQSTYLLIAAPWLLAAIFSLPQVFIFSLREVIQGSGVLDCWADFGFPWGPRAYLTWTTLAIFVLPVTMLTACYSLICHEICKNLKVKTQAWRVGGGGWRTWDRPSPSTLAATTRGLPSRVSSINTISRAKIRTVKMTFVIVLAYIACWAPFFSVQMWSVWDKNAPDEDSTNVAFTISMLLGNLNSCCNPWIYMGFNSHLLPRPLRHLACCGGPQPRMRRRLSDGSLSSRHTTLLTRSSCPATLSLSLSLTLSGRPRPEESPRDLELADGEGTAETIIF

The next experiment concerns the target T5, HCRTR2 (UniProt O43614 1-444).
T5 sequence (looked up): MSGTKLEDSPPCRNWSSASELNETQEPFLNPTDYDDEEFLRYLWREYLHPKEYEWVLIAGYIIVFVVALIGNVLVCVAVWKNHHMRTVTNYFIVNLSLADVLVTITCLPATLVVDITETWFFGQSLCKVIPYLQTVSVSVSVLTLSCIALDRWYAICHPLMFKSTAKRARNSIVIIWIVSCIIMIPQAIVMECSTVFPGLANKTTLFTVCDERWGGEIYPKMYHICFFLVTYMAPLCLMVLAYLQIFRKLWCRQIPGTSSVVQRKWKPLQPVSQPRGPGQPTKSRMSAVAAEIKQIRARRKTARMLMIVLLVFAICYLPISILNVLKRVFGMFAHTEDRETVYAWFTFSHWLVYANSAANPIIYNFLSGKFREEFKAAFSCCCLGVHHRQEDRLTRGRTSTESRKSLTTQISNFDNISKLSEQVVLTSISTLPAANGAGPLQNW

A further experiment concerns the target T6, C5aR1 (UniProt P21730 1-350).
T6 sequence (looked up): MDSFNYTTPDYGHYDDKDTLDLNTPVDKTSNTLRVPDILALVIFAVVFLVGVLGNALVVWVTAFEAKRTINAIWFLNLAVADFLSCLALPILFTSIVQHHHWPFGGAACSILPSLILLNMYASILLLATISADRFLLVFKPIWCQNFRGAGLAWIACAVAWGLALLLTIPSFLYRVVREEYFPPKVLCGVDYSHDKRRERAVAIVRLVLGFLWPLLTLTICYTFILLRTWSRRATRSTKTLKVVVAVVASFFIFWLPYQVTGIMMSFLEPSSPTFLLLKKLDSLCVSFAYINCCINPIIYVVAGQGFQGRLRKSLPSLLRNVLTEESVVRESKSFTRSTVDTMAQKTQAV

This is an account of results in US20260184748A1 (University of Pennsylvania, published 2026).

Where no end group is shown, it is not given here.

Chain of P2RY6 (Q15077 whole entry): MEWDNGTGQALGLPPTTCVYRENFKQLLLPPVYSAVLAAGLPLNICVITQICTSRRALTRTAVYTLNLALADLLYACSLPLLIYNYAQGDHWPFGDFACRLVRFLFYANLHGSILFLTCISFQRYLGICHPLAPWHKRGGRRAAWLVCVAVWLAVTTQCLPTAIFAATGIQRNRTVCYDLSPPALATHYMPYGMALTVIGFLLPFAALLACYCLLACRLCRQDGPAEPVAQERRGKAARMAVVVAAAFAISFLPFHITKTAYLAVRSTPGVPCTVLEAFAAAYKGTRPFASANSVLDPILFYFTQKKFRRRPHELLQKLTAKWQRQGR
Chain of HRH2 (P25021 whole entry): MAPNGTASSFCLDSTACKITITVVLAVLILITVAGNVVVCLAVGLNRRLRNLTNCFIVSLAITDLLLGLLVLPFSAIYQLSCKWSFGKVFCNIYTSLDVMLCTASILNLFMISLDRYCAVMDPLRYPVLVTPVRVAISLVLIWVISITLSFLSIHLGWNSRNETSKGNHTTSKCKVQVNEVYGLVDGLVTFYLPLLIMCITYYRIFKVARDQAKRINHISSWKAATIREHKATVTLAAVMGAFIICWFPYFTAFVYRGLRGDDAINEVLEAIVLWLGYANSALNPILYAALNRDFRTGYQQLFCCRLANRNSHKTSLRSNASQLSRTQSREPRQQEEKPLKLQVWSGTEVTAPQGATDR
Chain of NMBR (P28336 whole entry): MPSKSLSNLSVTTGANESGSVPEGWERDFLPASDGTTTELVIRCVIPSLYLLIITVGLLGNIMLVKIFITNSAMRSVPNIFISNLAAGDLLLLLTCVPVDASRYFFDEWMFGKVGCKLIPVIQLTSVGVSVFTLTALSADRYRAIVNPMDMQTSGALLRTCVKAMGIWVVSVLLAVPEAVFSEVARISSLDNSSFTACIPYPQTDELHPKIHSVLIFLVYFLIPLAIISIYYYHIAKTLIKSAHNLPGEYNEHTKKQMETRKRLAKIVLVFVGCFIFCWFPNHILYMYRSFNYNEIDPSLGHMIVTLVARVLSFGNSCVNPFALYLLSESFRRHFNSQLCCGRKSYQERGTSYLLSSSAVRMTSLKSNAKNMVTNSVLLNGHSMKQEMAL
Chain of PTGIR (P43119 whole entry): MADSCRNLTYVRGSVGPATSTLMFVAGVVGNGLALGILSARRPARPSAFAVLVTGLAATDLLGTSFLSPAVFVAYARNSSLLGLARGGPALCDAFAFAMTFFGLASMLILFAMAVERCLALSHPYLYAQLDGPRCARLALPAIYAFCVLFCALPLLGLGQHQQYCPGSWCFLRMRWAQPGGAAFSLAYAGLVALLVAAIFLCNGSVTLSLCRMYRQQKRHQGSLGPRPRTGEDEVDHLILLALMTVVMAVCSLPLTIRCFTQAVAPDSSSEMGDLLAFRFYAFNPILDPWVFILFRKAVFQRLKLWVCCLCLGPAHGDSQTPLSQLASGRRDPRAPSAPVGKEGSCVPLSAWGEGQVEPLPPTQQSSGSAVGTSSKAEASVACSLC
Chain of OPRL1 (P41146 whole entry): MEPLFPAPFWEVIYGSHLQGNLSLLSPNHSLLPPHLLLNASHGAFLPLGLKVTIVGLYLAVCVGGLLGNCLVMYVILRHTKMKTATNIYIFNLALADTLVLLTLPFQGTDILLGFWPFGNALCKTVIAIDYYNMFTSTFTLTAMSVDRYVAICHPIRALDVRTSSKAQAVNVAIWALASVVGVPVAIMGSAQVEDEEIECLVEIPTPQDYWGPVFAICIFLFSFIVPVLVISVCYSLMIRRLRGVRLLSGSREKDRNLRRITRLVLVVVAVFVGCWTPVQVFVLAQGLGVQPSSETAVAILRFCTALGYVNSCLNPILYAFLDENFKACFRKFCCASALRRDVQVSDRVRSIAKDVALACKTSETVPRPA

B1: octadecaneuropeptide (ODN) (peptide)
peptide: QATVGDVNTDRPGLLDLK
modifications: also: synthesised on Rink amide resin, C-terminal amide not given here outright
For the molecule B1, the “% Activity, arrestin, antagonist mode, 2.5 uM” value in the experiment with GLP2R was -15.4%; with AGTRL1, -23.4%; with VIPR1, -11.6%; with PTGIR it was -20%; in the experiment with OPRL1, -5.6%; in the experiment with AVPR1B, -25.7%. The “% Activity, arrestin, antagonist mode, 2.5 uM” value was -13.3% with HRH2; -2.7% with HCRTR2; -7.7% with NMBR; -15.1% in the experiment with P2RY6; -14.2% in the experiment with C5aR1.
